# Source: the supplement of paper PMC9170038
# Test system: MS2 coat protein
# Experiment: apparent KD of MS2 coat protein; designed switch direction (-1 OFF switch, 1 ON switch): -1; higher = weaker reporter binding
# Method in brief: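 The buffer was Tris-HCl pH 7.5 with KCl, MgCl2, BSA, DTT, tRNA and Tween-20. In it, SNAP-549-labelled MS2 coat protein was titrated in doubling steps from 0.7 or 1.5 nM to 3 µM over chip-bound RNA switches transcribed by stalled E. coli RNA polymerase on Illumina chips. Apparent KD is the per-design median over clusters of curve fits to normalised fluorescence.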
# [1] = Eterna round: R95, input ligand: FMN 200 uM
# [2] = Eterna round: R95, input ligand: microRNA oligo, concentration not stated
# [3] = Eterna round: R95, input ligand: none
# [4] = input ligand: microRNA oligo, concentration not stated
Sequence,apparent KD of MS2 coat protein [1] [nM],apparent KD of MS2 coat protein [2] [nM],apparent KD of MS2 coat protein [3] [nM],apparent KD of MS2 coat protein (input ligand: FMN 200 uM) [nM],apparent KD of MS2 coat protein (input ligand: none) [nM],apparent KD of MS2 coat protein [4] [nM]
AGGUAACAUGAGGAUCACCCAUGUCAGGAUAUCAGUAAGAUGAGGAUAGAAUAGAGUAUGAGAAGGGACUAUAU [Excluse me! 22 - Jieux - Exclusion 1] (puzzle: Exclusion 1),34,38.5,47.6,,,
"AGGUAGUCAGGAUAUUAAGAGUAGCGGGAUAACGCUACGAGUGAGAAGGGACAUGAGGAUCACCCAUGUUUUUU [JR_Ex4_Sub072] (Eterna round: R97, puzzle: Exclusion 4)",,,,22,22.5,
"AGGUCACAUGAGGAUCACCCAUGUGAGGAUAUAGACUCAAGAGCUUCGGCUCUCAAGUUUAGAAGGCGCAAUGA [EX1 #52] (Eterna round: R97, puzzle: Exclusion 1)",,,,31.7,31.2,
"AGGUGUAGAGGAUAUCGACUUUCUCACAUGAGGAUCACCCAUGUCCUGGUCACCCAGGACCGAGAAGGCUACACCA [Omei Ex5 D27] (Eterna round: R97, puzzle: Exclusion 5)",,,,204,27.6,
"AGGUGUAGAGGAUAUCUCUUCUCUCACAUGAGGAUCACCCAUGUCCUGGGUACCUAGGAGAGAGAAGGCUACACCA [Omei Ex5 D11] (Eterna round: R97, puzzle: Exclusion 5)",,,,1370,587,
AGUAACAGAGGAUAUACUGUUUUAUGUGUUUGUUAUUUUGAACAUGAGGAUCACCCAUGUAGAAGGCUGAAUAA [JMF 92] (puzzle: Exclusion 2),,20,,,,
"AGUAACUAUCACGAAAGUGAUAGUUACAAACAGGUGAAAACAUGAGGAUCACCCAUGUCCUCAUUUGCUCGUCUUAU [Sensor 3 - 8] (puzzle: Sensor v3, turn-off variant 2)",213,64.5,240,,,
"AGUACUAACACGAAAGUGUUAGUACAAUAAGCUUGUGUAACAUGAGGAUCACCCAUGUCCUCAUAAGCUCGUCUUAU [salish99_TOv2_r3_043] (puzzle: Sensor v3, turn-off variant 2)",50.6,38.3,51.6,,,
"AGUACUAACACGAAAGUGUUGGUACAAUAAGCUUGUGAAACAUGAGGAUCACCCAUGUCCUCAUAAGCUCGUCUUAU [salish99_TOv2_r3_036] (puzzle: Sensor v3, turn-off variant 2)",17.9,599,16.7,,,
"AGUACUAACACGAGAGUGUUAGUACAAUAAGCUUGUGUUACAUGAGGAUCACCCAUGUCCUCAUAAGCUCGUCUUAA [Mat - Sensor v3 - Turn-off var 2 - D58] (puzzle: Sensor v3, turn-off variant 2)",41.3,727,42.5,,,
"AGUACUAACACGGAAGUGUUAGUACAAUAAGCUUGUGUUACAUGAGGAUCACCCAUGUCCUCAUAAGCUCGUCUUAU [Mat - Sensor v3 - Turn-off var 2 - D61] (puzzle: Sensor v3, turn-off variant 2)",113,12.4,112,,,
"AGUACUAACACGGAAGUGUUAGUACUAUAAGCUUGUGUUACAUGAGGAUCACCCAUGUCCUCAUAAGCUCGUCUUAU [Mat - Sensor v3 - Turn-off var 2 - D69] (puzzle: Sensor v3, turn-off variant 2)",94.5,87,98.2,,,
"AGUACUAUCACGAAAGUGAUAGUACAAUGAGCUUUUGAAACAUGAGGAUCACCCAUGUCCUCGUAAGCUCGUCUUAA [Mat - Sensor v2 - var 2 - Mod - D179] (Eterna round: R96, puzzle: Sensor v2, turn-off variant 2)",,,,25.7,28.6,438
"AGUACUAUCACGAAAGUGAUAGUACGAGGAGCAAGUGGAACAUGAGGAUCACCCAUGUCCUCAUCUGCUCGUCUUAU [salish99-s2-v2-x008] (Eterna round: R96, puzzle: Sensor v2, turn-off variant 2)",,,,13.5,16.3,172
"AGUACUAUGCGAGCUGACUUGCGUAGUGCAGCAGGUGGAACAUGAGGAUCACCCAUGUCCUCAUUUGCUCGUCUUAU [Mat - Sensor v3 - Turn-off var 2 - D4] (puzzle: Sensor v3, turn-off variant 2)",30.2,120,26.8,,,
"AGUAGAUCAGGAUAUACGUGAAAGGUCAAAGUGUCCAAUAUACAUGAGGAUCACCCAUGUAGAAGGGAUCUACA [Ex2 Design 116: Not so Super Stable 3] (Eterna round: R96, puzzle: Exclusion 2)",,,,168,27.4,22.1
"AGUAGGUCUACCUUGGUGGAUCUGCAUUUAUGCAAGUGUACAUGAGGAUCACCCAUGUCCUCAUUUGCUCGUCUUAU [JL turnoff v2 99.26] (puzzle: Sensor v3, turn-off variant 2)",95,432,103,,,

Sequence,apparent KD of MS2 coat protein [1] [nM],apparent KD of MS2 coat protein [2] [nM],apparent KD of MS2 coat protein [3] [nM],apparent KD of MS2 coat protein (input ligand: FMN 200 uM) [nM],apparent KD of MS2 coat protein (input ligand: none) [nM],apparent KD of MS2 coat protein [4] [nM]
"AGUAGUUGUUUCCGUUCUUACAUGAGGAUCACCCAUGUUUCUUGUCGUGCACGCGAUGCUCGUCAGACUACCAGAUG [salish99_TOv1_r3_058] (puzzle: Sensor v3, turn-off variant 1)",52.5,69.9,61.9,,,
"AGUAUGUCAGGAUAUCUCGGGUAGCCCACAAGGACUACCGAAGAGAAGGGACAUGAGGAUCACCCAUGUACCAU [EX4 B.24] (Eterna round: R97, puzzle: Exclusion 4)",,,,19.9,21.4,
"AGUCAGGCGGUAGGAUAUCCAAAUCGAGUGACCCUCUCAUAACAUGAGGAUCACCCAUGUCGGUGGGAGAAGGGCCGUAAGGCA [Mat - Exclusion NG 2 - Mod of JL - D64] (Eterna round: R96, puzzle: Exclusion NG 2)",,,,33,30.9,16.4
AGUCGGCGAGGAUAUACAUGAGGAUCACCCAUGUGAUAUAGUGCACGCGUACGUGUACGUAGAAGGCGCUGACA [Mat - Exclusion 3 - Mod of JL D93] (puzzle: Exclusion 3),,11.5,,,,
"AGUGCAUGAGGAUAUGCAAAUCGAAAGACGCAAGGGCAAUCACAUGAGGAUCACCCAUGUAGAAGGCGUCGCAC [Eternabot (Original) Solution 17] (Eterna round: R97, puzzle: Exclusion 2)",,,,30.7,31.9,
AGUGCGUAUGUGAGGAUAUGCUGGUCCUUGGAUCAGCAGAAGGCACAUGAGGAUCACCCAUGUGGUGUCGUACU [salish99_Bmod_Ex4_005] (puzzle: Brourd's mod of Exclusion 4),,190,,,,
AGUGCGUAUGUGAGGAUAUGCUGGUCCUUGGAUCGGCAGAAGGCACAUGAGGAUCACCCAUGUGGUGUCGUACG [salish99_Bmod_ex4_077] (puzzle: Brourd's mod of Exclusion 4),203,58.6,89.2,,,
"AGUGUGUGGCAGGAUAUUCUAAUCUUGAGGAGGGAAGAAGGGUCUACAUGAGGAUCACCCAUGUAAGCGGUUGA [Ex6 #41] (Eterna round: R97, puzzle: Exclusion 6)",,,,142,33.6,
"AGUGUGUGGCAGGAUAUUCUGUUGAUUAGGACAGAAGAAGGGUCUACAUGAGGAUCACCCAUGUAAGCGGUUGA [Ex6 #36] (Eterna round: R97, puzzle: Exclusion 6)",,,,275,268,
"AGUUCUAACACGAAAGUGUUAGUACAAUAAGCUUGUGAAACAUGAGGAUCACCCAUGUCCUCAUAAGCUCGUCUUAU [salish99_TOv2_r3_013] (puzzle: Sensor v3, turn-off variant 2)",15.4,667,14.7,,,
"AGUUGGCGAGGAUAUACAUGAGGAUCACCCAUGUAUGAGAUACGAGUAAGGUAAAUAUGUAGAAGGCGCUGACA [JR_Ex3_Sub077] (Eterna round: R97, puzzle: Exclusion 3)",,,,52,16.8,
AGUUGGCGAGGAUAUACAUGAGGAUCACCCAUGUGAAAUAGAAGAGUGAGGAAGAAAAGUAGAAGGCGCUGACA [Mat - Exclusion 3 - Mod of Salish D40] (puzzle: Exclusion 3),134,69,107,,,
"AGUUGGCGAGGAUAUACAUGAGGAUCACCCAUGUGAAAUCGAGAAAAAAUAGGGAAAAGUAGAAGGCGCAGACA [Ruby 63] (Eterna round: R96, puzzle: Exclusion 3)",,,,28.2,28.7,24.3
"AGUUGGCGAGGAUAUACAUGAGGAUCACCCAUGUGAGGGAUACUAGUGAGGUCGAUUAGUAGAAGGCGCUGACA [Mat X3R4 m9] (Eterna round: R97, puzzle: Exclusion 3)",,,,839,56.1,
"AGUUGGCGAGGAUAUACAUGAGGAUCACCCAUGUGGUCCUGCGAUGGUGUCGCCCUUUGUAGAAGGCGCGGGUA [salish99_ex3_r4_055] (Eterna round: R97, puzzle: Exclusion 3)",,,,40.7,38.8,
"AGUUGGGCAGGAUAUACAUGAGGAUCACCCAUGUGAGAGAUACUAGUGAGGUCGAUUAGUAGAAGGGCCUGACA [Mat X3R4 m2] (Eterna round: R97, puzzle: Exclusion 3)",,,,251,40.9,
